Target: histone H3 trimethylated at lysine 9 (H3K9me3) in native chromatin of Caki-1 cells (UniProt P68431)

| Substance | Ec: global enrichment of the ATAC-seq tagmentation signal over H3K9me3-marked regions, log2(ratio) over genomic Input, Caki-1 [Continued) e] | Mc: modal enrichment of the ATAC-seq tagmentation signal over H3K9me3-marked regions, log2(ratio) over genomic Input, Caki-1 [Continued) e] | stated: no tagmentation signal over H3K9me3 ChIP-seq domains (ATAC-seq on permeabilized Caki-1 nuclei) | stated: tagmentation signal over H3K9me3 ChIP-seq domains (ATAC-seq on permeabilized Caki-1 nuclei) | tagmentation of native chromatin on permeabilized nuclei (ATAC-seq) | Ec: global enrichment of the ATAC-seq tagmentation signal over H3K9me3-marked regions, log2(ratio) over genomic Input, Caki-1; subscript printed as 0, first E line of the box | GET-seq, sequential Tn5 then TnH tagmentation, compared with ChIP-seq profiles | Mc: modal enrichment of the ATAC-seq tagmentation signal over H3K9me3-marked regions, log2(ratio) over genomic Input, Caki-1; subscript printed as 0, first M line of the box, agrees with the mode of t | TnH ATAC-seq compared with H3K9me3 and H3K4me3 ChIP-seq | enrichment of tagmentation signal over H3K9me3-marked regions, compared among TnH #1-4 | scGET-seq pseudobulk compared with H3K9me3 and H3K4me3 ChIP-seq | stated: tagmentation profile follows the H3K9me3 ChIP-seq profile (ATAC-seq, Caki-1) | stated: tagmentation profile follows the H3K9me3 ChIP-seq profile (bulk ATAC-seq with TnH alone and scGET-seq pseudo-bulk, Caki-1) [Continued) g] |
| --- | --- | --- | --- | --- | --- | --- | --- | --- | --- | --- | --- | --- | --- |
| Nextera | Ec= -3.16 | Mc= -0.89 | Nextera track (scale 0-9.3): near zero over the H3K9me3 domain at about 42.4-43.4 Mbp and only small spikes at about 43.8-44.6 Mbp of Chr. 19; peaks where the H3K4me3 track has peaks | – | – | – | – | – | – | – | – | – | – |
| TnH #1: 93aaCD (HP1α)-3×(TGS)-Tn5 | Ec= 0.01 | Mc= 0.19 | – | TnH#1 track (scale 0-6.6): continuous raised signal over the H3K9me3 domain at about 42.4-43.4 Mbp of Chr. 19, where the Tn5 and Nextera tracks are near zero, and lower continuous signal at about 43.8-44.6 Mbp; also sharp peaks at H3K4me3 positions | hybrid Tn5 constructs indeed cut and inserted oligos in regions enriched for H3K9me3 | – | – | – | – | – | – | – | – |
| TnH #2: 93aaCD (HP1α)-5×(TGS)-Tn5 | Ec= -0.41 | Mc= 0.07 | – | TnH#2 track (scale 0-7.7): signal above baseline over the H3K9me3 domain at about 42.4-43.4 Mbp of Chr. 19, where the Tn5 and Nextera tracks are near zero; the sharp peaks at H3K4me3 positions stand out more than in TnH#3 and TnH#1 | hybrid Tn5 constructs indeed cut and inserted oligos in regions enriched for H3K9me3 | – | – | – | – | – | – | – | – |
| TnH #3: 112aaCD (HP1α)-3×(TGS)-Tn5 | Ec= 0.25 | Mc= 0.31 | – | TnH#3 track (scale 0-8.0): continuous raised signal over the H3K9me3 domain at about 42.4-43.4 Mbp of Chr. 19, where the Tn5 and Nextera tracks are near zero, and lower continuous signal at about 43.8-44.6 Mbp; also sharp peaks at H3K4me3 positions (e.g. about 45.5 Mbp) | hybrid Tn5 constructs indeed cut and inserted oligos in regions enriched for H3K9me3 | E0= 0.25 | TnH mimicked more closely H3K9me3 data, and to a lesser extent H3K4me3 | M0= 0.31 | TnH captures both H3K4me3- and H3K9me3-enriched regions, unlike Tn5 which closely matches H3K4me3 profiles | We identified the construct TnH #3, from now on TnH, as the most efficient | TnH was able to target regions positive for H3K9me3 as well as H3K4me3 | TnH track (scale 0-15): broad raised signal where the H3K9me3 track has its domains, highest at about 54.5-55.7 Mbp and raised at about 59-62.5 Mbp of Chr.12, where the Tn5 track is near zero; Input (scale 0-10) flat near 0 | tnH track (scale 0-15): broad raised signal of about half the scale or more at about 33-35, 36.3-37.5 and 38.0-38.9 Mbp of chr1, over the H3K9me3 domains; tnH pseudobulk track (scale 0-15): the same three domains raised, somewhat lower; both also show small peaks at H3K4me3 positions; Input (scale 0 |
| TnH #4: 112aaCD (HP1α)-5×(TGS)-Tn5 | Ec= -0.55 | Mc= 0.07 | – | TnH#4 track (scale 0-2.7): signal above baseline over the H3K9me3 domain at about 42.4-43.4 Mbp of Chr. 19, where the Tn5 and Nextera tracks are near zero; the sharp peaks at H3K4me3 positions stand out more than in TnH#3 and TnH#1 | hybrid Tn5 constructs indeed cut and inserted oligos in regions enriched for H3K9me3 | – | – | – | – | – | – | – | – |

Reference: patent US20240425848
